Target: T1, Phospholipase Cβ3 (PLCβ3), wild type (UniProt Q01970 10-1234)
T1 construct: Phospholipase Cβ3; The CTD linker and distal CTD are disordered in the structures; also called wild-type PLCβ3
T1 sequence: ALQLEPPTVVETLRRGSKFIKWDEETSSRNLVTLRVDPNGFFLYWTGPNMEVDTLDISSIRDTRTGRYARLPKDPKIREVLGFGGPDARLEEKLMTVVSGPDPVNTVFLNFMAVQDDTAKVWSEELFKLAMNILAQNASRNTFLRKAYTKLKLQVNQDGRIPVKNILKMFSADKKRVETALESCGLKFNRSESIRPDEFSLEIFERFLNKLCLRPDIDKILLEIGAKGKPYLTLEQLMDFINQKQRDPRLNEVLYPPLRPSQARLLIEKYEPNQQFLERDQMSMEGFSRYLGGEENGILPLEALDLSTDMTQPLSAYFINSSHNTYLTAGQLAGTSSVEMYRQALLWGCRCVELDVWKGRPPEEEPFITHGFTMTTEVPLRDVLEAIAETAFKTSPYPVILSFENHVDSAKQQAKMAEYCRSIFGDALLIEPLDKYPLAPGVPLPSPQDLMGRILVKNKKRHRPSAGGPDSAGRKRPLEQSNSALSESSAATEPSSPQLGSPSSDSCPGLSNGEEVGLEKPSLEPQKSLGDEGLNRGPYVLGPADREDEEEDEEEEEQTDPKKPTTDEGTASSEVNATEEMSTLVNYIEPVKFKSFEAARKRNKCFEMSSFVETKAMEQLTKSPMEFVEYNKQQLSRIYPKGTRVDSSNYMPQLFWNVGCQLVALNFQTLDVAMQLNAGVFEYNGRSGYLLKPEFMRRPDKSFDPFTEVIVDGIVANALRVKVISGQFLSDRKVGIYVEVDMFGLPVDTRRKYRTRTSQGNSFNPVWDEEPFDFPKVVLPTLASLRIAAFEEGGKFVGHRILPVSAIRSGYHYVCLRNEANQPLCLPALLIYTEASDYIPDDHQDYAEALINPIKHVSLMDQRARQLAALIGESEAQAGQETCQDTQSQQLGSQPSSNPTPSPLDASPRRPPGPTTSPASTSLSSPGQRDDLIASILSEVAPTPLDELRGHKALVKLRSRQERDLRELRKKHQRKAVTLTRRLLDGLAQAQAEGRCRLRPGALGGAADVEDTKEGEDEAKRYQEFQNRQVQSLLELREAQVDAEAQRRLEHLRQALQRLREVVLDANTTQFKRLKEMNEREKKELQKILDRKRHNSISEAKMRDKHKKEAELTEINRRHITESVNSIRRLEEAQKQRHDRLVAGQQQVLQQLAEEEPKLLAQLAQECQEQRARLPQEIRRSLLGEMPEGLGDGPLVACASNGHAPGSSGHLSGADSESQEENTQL
Experiment: cryo-EM structure; PLCβ3 mixed with wildtype Gαq bound to GDP-AlF4, then added to 2DOPE:1POPC:1POPS (wt:wt:wt) vesicles with reconstituted lipidated Gβγ; 3.4 Å
Details: both partners purified

B1: Gαq, wild type, nonlipidated, bound to GDP-AlF4 (natural protein)
chain: MACCLSEEAKEARRINDEIERQLRRDKRDARRELKLLLLGTGESGKSTFIKQMRIIHGSGYSDEDKRGFTKLVYQNIFTAMQAMIRAMDTLKIPYKYEHNKAHAQLVREVDVEKVSAFENPYVDAIKSLWNDPGIQECYDRRREYQLSDSTKYYLNDLDRVADPAYLPTQQDVLRVRVPTTGIIEYPFDLQSVIFRMVDVGGQRSERRKWIHCFENVTSIMFLVALSEYDQVLVESDNENRMEESKALFRTIITYPWFQNSSVILFLNKKDLLEEKIMYSHLVDYFPEYDGPQRDAQAAREFILKMFVDLNPDSDKIIYSHFTCATDTENIRFVFAAVKDTILQLNLKEYNLV
notes: In the structures the N terminus is disordered until position 38; Construct limits, any chimeric N terminus, host and tags are described only in SI Appendix, Materials and Methods; also called wildtype Gαq; wild-type Gαq
stoichiometry N: 1

Reference: publication PMC10691244, “The mechanism of Gαq regulation of PLCβ3-catalyzed PIP2 hydrolysis” (Proceedings of the National Academy of Sciences of the …, 2023)
